From US20160223529A1 (UNIVERSITY OF QUEENSLAND, published 2016) come the findings set out here.

Assay [1] addresses Calmodulin (Homo sapiens (Human), UniProt P0DP23 4-149). As to the kind of experiment: Protease activation assay: TVMV activity on a fluorogenic substrate at different calmodulin concentrations (FIG. 3).
Assay [2] concerns the target T1, TVMV-AI-ePDZ-Binder.
T1 chain: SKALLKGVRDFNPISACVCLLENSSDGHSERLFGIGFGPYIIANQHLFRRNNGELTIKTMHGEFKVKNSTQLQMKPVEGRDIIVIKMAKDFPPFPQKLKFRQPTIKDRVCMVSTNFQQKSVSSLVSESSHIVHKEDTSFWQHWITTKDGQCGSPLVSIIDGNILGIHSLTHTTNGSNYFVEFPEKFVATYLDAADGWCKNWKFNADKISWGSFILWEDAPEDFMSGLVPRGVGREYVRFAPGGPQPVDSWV
The assay can be described thus: Protease activation assay: TVMV activity on a fluorogenic substrate (FIG. 5).

B1: TVMV-AI-CalmodulinBinder (enzyme)
chain: SKALLKGVRDFNPISACVCLLENSSDGHSERLFGIGFGPYIIANQHLFRRNNGELTIKTMHGEFKVKNSTQLQMKPVEGRDIIVIKMAKDFPPFPQKLKFRQPTIKDRVCMVSTNFQQKSVSSLVSESSHIVHKEDTSFWQHWITTKDGQCGSPLVSIIDGNILGIHSLTHTTNGSNYFVEFPEKFVATYLDAADGWCKNWKFNADKISWGSFILWEDAPEDFMSGLVPRGVGREYVRFAPRWKKNFIAVSAANRFKKISSSGAL
notes: also called TVMV based calmodulin sensor
In the case of B1, the binding result in assay [1] is “binds”.

B2: ePDZ (designed binder)
chain: SGTSPELGFSISGGVGGRGNPFRPDDDGIFVTRVQPEGPASKLLQPGDKIIQANGYSFINIEHGQAVSLLKTFQNTVELIIVREVGNGAKQEIRVRVEKDGGSGGVSSVPTNLEVVAATPTSLLISWDASYYGVSYYRITYGETGGNSPVQEFTVPYSSSTATISGLKPGVDYTITVYAYSDYYGSHHYSPISINYRTSGC
As for B2, the binding result in assay [2] was “binds”.
